To fix the notation:
B2: BBS1 (aa1-430) (domain or fragment, human, UniProt Q8NFJ9-1 1-430, looked up)
chain: MAAASSSDSDACGAESNEANSKWLDAHYDPMANIHTFSACLALADLHGDGEYKLVVGDLGPGGQQPRLKVLKGPLVMTESPLPALPAAAATFLMEQHEPRTPALALASGPCVYVYKNLRPYFKFSLPQLPPNPLEQDLWNQAKEDRIDPLTLKEMLESIRETAEEPLSIQSLRFLQLELSEMEAFVNQHKSNSIKRQTVITTMTTLKKNLADEDAVSCLVLGTENKELLVLDPEAFTILAKMSLPSVPVFLEVSGQFDVEFRLAAACRNGNIYILRRDSKHPKYCIELSAQPVGLIRVHKVLVVGSTQDSLHGFTHKGKKLWTVQMPAAILTMNLLEQHSRGLQAVMAGLANGEVRIYRDKALLNVIHTPDAVTSLCFGRYGREDNTLIMTTRGGGLIIKILKRTAVFVEGGSEVGPPPAQAMKLNVPRK
notes: BBS1, human, residues 1-430; also called BBS1 ß-propeller domain; truncated BBS1 subunit; source: Hi5 insect cells (baculovirus), purified

Like-named read-outs stand apart in the source and are kept apart here. Ends that are not written are not given here. fluorescein = fluorescein, N-terminal fluorescent label Some results are limits rather than exact numbers.

Data set [1] concerns the target T1, 5HT6 CT (human (from the printed UniProt accession)). The data set can be described thus: fluorescence polarisation; fluorescein-labelled peptide or Smo fragment (0.1–1 µM) titrated with core BBSome or BBS1 (aa1-430); quadratic binding fit. Background: Fluorescence polarisation rises when a labelled molecule tumbles more slowly, as on binding a larger partner.
Data set [2] has as its target fluoresceine-labeled Smo (R546-L665) (human (from the printed UniProt accession)) (UniProt Q99835). Described as above.
In the data set “SSTR3 CT4 (human)” the target is SSTR3 CT4 (human (from the printed UniProt accession)). The description is as above.
The data set “GPR161 CT2 (human)” addresses GPR161 CT2 (human (from the printed UniProt accession)). The description is as above.
The data set “NMU 3ICL2 (human)” has as its target NMU 3ICL2 (human (from the printed UniProt accession)). The description is as above.
The data set “SSTR3 CT9 (human)” concerns the target SSTR3 CT9 (human (from the printed UniProt accession)). The data set is described as above.
The data set “Smo CT1 (human)” has as its target Smo CT1 (human (from the printed UniProt accession)). The description is as above.
The data set “SSTR3 CT1 (human)” deals with SSTR3 CT1 (human (from the printed UniProt accession)). The description is as above.
The target in the data set “SSTR3 CT8 (human)” is SSTR3 CT8 (human (from the printed UniProt accession)). The data set is described as above.
The target of the data set “SSTR3 3ICL (human)” is SSTR3 3ICL (human (from the printed UniProt accession)). The description is as above.
The target of the data set “Smo CT4 (human)” is Smo CT4 (human (from the printed UniProt accession)). The description is as above.
The target of the data set “SSTR3 CT2 (human)” is SSTR3 CT2 (human (from the printed UniProt accession)). Described as above.
The data set “MCH 3ICL (human)” deals with MCH 3ICL (human (from the printed UniProt accession)). The description is as above.
Sequence of MCH 3ICL (human (peptide, as listed by the source): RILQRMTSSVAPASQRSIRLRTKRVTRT
The target of the data set “Smo CT6 (human)” is Smo CT6 (human (from the printed UniProt accession)). The data set is described as above.
For the data set “Smo CT2 (human)”, the target named is Smo CT2 (human (from the printed UniProt accession)). The description is as above.
The target in the data set “GPR161 CT1 (human)” is GPR161 CT1 (human (from the printed UniProt accession)). The data set is described as above.
Sequence of GPR161 CT1 (human (Q8N6U8 328-354): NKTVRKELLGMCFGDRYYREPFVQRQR
The data set “SSTR3 CT7 (human)” addresses SSTR3 CT7 (human (from the printed UniProt accession)). The data set is described as above.
The data set “SSTR3 CT3 (human)” has as its target SSTR3 CT3 (human (from the printed UniProt accession)). The description is as above.
The target in the data set “NMU 3ICL1 (human)” is NMU 3ICL1 (human (from the printed UniProt accession)). The data set is described as above.
Sequence of NMU 3ICL1 (human (peptide, as listed by the source): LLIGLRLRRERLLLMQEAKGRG
For the data set “Smo CT7 (human)”, the target named is Smo CT7 (human (from the printed UniProt accession)). The description is as above.
The data set “Smo CT3 (human)” concerns the target Smo CT3 (human (from the printed UniProt accession)). Described as above.
The target in the data set “Smo CT5 (human)” is Smo CT5 (human (from the printed UniProt accession)). The data set is described as above.
In the data set “Smo CT8 (human)” the target is Smo CT8 (human (from the printed UniProt accession)). The data set is described as above.
The data set “GPR161 3ICL (human)” addresses GPR161 3ICL (human (from the printed UniProt accession)). The data set is described as above.
The data set “SSTR3 CT5 (human)” concerns the target SSTR3 CT5 (human (from the printed UniProt accession)). Described as above.
Data set [3] has as its target T1, 5HT6 CT (human). The data set is described as above. The source holds these as a separate data set.
The data set “SSTR3 CT6 (human)” deals with SSTR3 CT6 (human (from the printed UniProt accession)). The data set is described as above.
The data set “BBS1 (aa1-430)” has as its target B2. Described as above. The conditions noted are these: both partners purified.
The target of a further data set is T2, SSTR3 CT2 (human (from the printed UniProt …, fluorescein on the N-terminus)).
T2 construct: SSTR3, three residues of the 7th transmembrane region and 21 of the C-terminus; limits worked out from the printed RRVR 333-336; source: synthetic peptide, bought: Proteogenix
T2 peptide: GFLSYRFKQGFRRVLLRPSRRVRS
The data set is described as above. The conditions noted are these: both partners purified.

Data set [4] concerns the molecule itself. Kind of data set: SEC; samples purified by affinity chromatography and gel filtration; 2.5–10 µg of the peak fraction on a Superdex 200 5/20 column; elution volume against standard proteins. (In general: Size exclusion chromatography separates by hydrodynamic size, large species first.)
Data set [5] concerns the molecule itself. Kind of data set: SEC; full length BBS9 at high concentrations; at lower concentrations the single peak shifts to lower molecular weight (fast equilibrium between monomer and dimer).

Usually Kd stands for the constant that tells how readily two partners part at equilibrium. A high value points to a looser complex. By stoichiometry N is commonly meant a count of units in the complex or per binding partner.

T1 sequence (P50406 325-344): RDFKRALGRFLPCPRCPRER
Sequence of GPR161 CT2 (human (Q8N6U8 489-510): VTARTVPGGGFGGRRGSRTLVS
Sequence of NMU 3ICL2 (human (Q9HB89 271-294): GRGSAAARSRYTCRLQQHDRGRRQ
Sequence of fluoresceine-labeled Smo (R546-L665) (human (Q99835 546-665): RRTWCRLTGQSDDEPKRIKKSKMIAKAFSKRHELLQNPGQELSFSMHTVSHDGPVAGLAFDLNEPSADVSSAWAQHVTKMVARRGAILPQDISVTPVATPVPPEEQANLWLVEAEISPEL
Sequence of Smo CT3 (human (Q99835 541-577): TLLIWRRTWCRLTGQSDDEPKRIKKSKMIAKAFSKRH

On to “6mer BBSome core complex (BBS1, 4, 5, 8, 9 and 18) (from UniProt Q8NFJ9-1 1-593; Q96RK4-1 1-519; Q8N3I7-1 1-341; Q8TAM2 1-541; Q3SYG4-1 1-887; A8MTZ0-1 1-92)”, for which the Kd with 5HT6 CT (human) [1] was more than 50 µM; in [2], 36.1 µM; with SSTR3 CT4 (human), 0.4 µM; in the data set with GPR161 CT2 (human), more than 100 µM; with NMU 3ICL2 (human) it was more than 100 µM; with SSTR3 CT9 (human) it was 4.7 µM. In addition, the Kd with Smo CT1 (human) amounted to 1.8 µM; in the data set with SSTR3 CT1 (human), 22.1 µM; with SSTR3 CT8 (human), 11 µM; in the data set with SSTR3 3ICL (human), 12.8 µM; with Smo CT4 (human), 1.1 µM; with SSTR3 CT2 (human) it was 0.11 µM. Also, the dissociation constant Kd is 68.8 µM with MCH 3ICL (human); 12.5 µM in the data set with Smo CT6 (human); more than 100 µM with Smo CT2 (human); 67.4 µM in the data set with GPR161 CT1 (human); 1 µM with SSTR3 CT7 (human); 1.1 µM in the data set with SSTR3 CT3 (human). For the same molecule, the dissociation constant Kd with NMU 3ICL1 (human) came to 18.1 µM; with Smo CT7 (human) it was 14.3 µM; in the data set with Smo CT3 (human), 1.4 µM; in the data set with Smo CT5 (human), 9.7 µM; with Smo CT8 (human) it was 6.8 µM; with GPR161 3ICL (human) it was 6.3 µM. In addition, the results for the dissociation constant (Kd) with SSTR3 CT5 (human), in the data set with 5HT6 CT (human) [3] and in the data set with SSTR3 CT6 (human) were 1.5 µM, 44.2 µM and 4.5 µM, respectively.

B1: SSTR3 3ICL (peptide)
peptide: fluorescein-VKVRSAGRRVWAPSCQRRRRSERRVTRM
notes: SSTR3, third intracellular loop; source: synthetic peptide, bought: Proteogenix
With B1, the binding result with BBS1 (aa1-430) is “binds”.

As to B2, the “fold lower affinity than to the core BBSome” value in the data set with SSTR3 CT2 is approximately 100 fold.

B3: BBS9 C-terminal part (residues 363–887) (domain or fragment, human, UniProt Q3SYG4-1 363-887, looked up)
chain: PSLFQAPNVQSRELNYDELDVEMKELQKIIKDVNKSQGVWPMTEREDDLNVSVVVSPNFDSVSQATDVEVGTDLVPSVTVKVTLQNRVILQKAKLSVYVQPPLELTCDQFTFEFMTPDLTRTVSFSVYLKRSYTPSELEGNAVVSYSRPTDRNPDGIPRVIQCKFRLPLKLICLPGQPSKTASHKITIDTNKSPVSLLSLFPGFASQSDDDQVNVMGFHFLGGARITVLASKTSQRYRIQSEQFEDLWLITNELILRLQEYFEKQGVKDFACSFSGSIPLQEYFELIDHHFELRINGEKLEELLSERAVQFRAIQRRLLARFKDKTPAPLQHLDTLLDGTYKQVIALADAVEENQGNLFQSFTRLKSATHLVILLIALWQKLSADQVAILEAAFLPLQEDTQELGWEETVDAAISHLLKTCLSKSSKEQALNLNSQLNIPKDTSQLKKHITLLCDRLSKGGRLCLSTDAAAPQTMVMPGGCTTIPESDLEERSVEQDSTELFTNHRHLTAETPRPEVSPLQGVSE
notes: BBS9, human, residues 363-887 (GAE, platform and alpha-helical domains); also called C-terminal domain of BBS9; C-terminal appendage part; source: Hi5 insect cells (baculovirus); alone, purified, or co-expressed with BBS1
For B3, in data set [4], the “stoichiometry N” value was 2.

B4: BBS9 (full length) (natural protein, human, UniProt Q3SYG4-1 1-887, looked up)
chain: MSLFKARDWWSTILGDKEEFDQGCLCLANVDNSGNGQDKIIVGSFMGYLRIFSPHPAKTGDGAQAEDLLLEVDLRDPVLQVEVGKFVSGTEMLHLAVLHSRKLCVYSVSGTLGNVEHGNQCQMKLMYEHNLQRTACNMTYGSFGGVKGRDLICIQSMDGMLMVFEQESYAFGRFLPGFLLPGPLAYSSRTDSFLTVSSCQQVESYKYQVLAFATDADKRQETEQQKLGSGKRLVVDWTLNIGEQALDICIVSFNQSASSVFVLGERNFFCLKDNGQIRFMKKLDWSPSCFLPYCSVSEGTINTLIGNHNNMLHIYQDVTLKWATQLPHIPVAVRVGCLHDLKGVIVTLSDDGHLQCSYLGTDPSLFQAPNVQSRELNYDELDVEMKELQKIIKDVNKSQGVWPMTEREDDLNVSVVVSPNFDSVSQATDVEVGTDLVPSVTVKVTLQNRVILQKAKLSVYVQPPLELTCDQFTFEFMTPDLTRTVSFSVYLKRSYTPSELEGNAVVSYSRPTDRNPDGIPRVIQCKFRLPLKLICLPGQPSKTASHKITIDTNKSPVSLLSLFPGFASQSDDDQVNVMGFHFLGGARITVLASKTSQRYRIQSEQFEDLWLITNELILRLQEYFEKQGVKDFACSFSGSIPLQEYFELIDHHFELRINGEKLEELLSERAVQFRAIQRRLLARFKDKTPAPLQHLDTLLDGTYKQVIALADAVEENQGNLFQSFTRLKSATHLVILLIALWQKLSADQVAILEAAFLPLQEDTQELGWEETVDAAISHLLKTCLSKSSKEQALNLNSQLNIPKDTSQLKKHITLLCDRLSKGGRLCLSTDAAAPQTMVMPGGCTTIPESDLEERSVEQDSTELFTNHRHLTAETPRPEVSPLQGVSE
notes: BBS9, human, as NM_198428.2 (887 residues by the printed range 363-887); source: Hi5 insect cells (baculovirus); alone, purified, or co-expressed with other subunits
In the case of B4, in [5], the “stoichiometry N” value worked out at 2.
